Consider 1 protein from patent US20090197812.

For data set [1], the target named is mutant I-κBα, the phosphorylation sites of which were modified.
A further data set has as its target T1, Human I-κBα.
T1 chain: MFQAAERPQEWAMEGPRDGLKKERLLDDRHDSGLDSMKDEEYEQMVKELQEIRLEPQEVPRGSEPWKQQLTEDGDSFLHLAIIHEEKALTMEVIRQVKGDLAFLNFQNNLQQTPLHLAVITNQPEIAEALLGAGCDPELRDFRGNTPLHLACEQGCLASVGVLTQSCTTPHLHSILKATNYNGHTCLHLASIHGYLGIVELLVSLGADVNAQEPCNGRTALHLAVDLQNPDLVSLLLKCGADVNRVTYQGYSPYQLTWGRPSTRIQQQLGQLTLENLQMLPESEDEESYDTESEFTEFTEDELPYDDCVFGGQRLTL

B1: transglutaminase (guinea pig liver, Sigma) (protein)
chain: AEDLILERCDLQLEVNGRDHRTADLCRERLVLRRGQPFWLTLHFEGRGYEAGVDTLTFNAVTGPDPSEEAGTMARFSLSSAVEGGTWSASAVDQQDSTVSLLLSTPADAPIGLYRLSLEASTGYQGSSFVLGHFILLYNPRCPADAVYMDSDQERQEYVLTQQGFIYQGSAKFINGIPWNFGQFEDGILDICLMLLDTNPKFLKNAGQDCSRRSRPVYVGRVVSAMVNCNDDQGVLQGRWDNNYSDGVSPMSWIGSVDILRRWKDYGCQRVKYGQCWVFAAVACTVLRCLGIPTRVVTNFNSAHDQNSNLLIEYFRNESGEIEGNKSEMIWNFHCWVESWMTRPDLEPGYEGWQALDPTPQEKSEGTYCCGPVPVRAIKEGHLNVKYDAPFVFAEVNADVVNWIRQKDGSLRKSINHLVVGLKISTKSVGRDEREDITHTYKYPEGSEEEREAFVRANHLNKLATKEEAQEETGVAMRIRVGQNMTMGSDFDIFAYITNGTAESHECQLLLCARIVSYNGVLGPVCSTNDLLNLTLDPFSENSIPLHILYEKYGDYLTESNLIKVRGLLIEPAANSYVLAERDIYLENPEIKIRVLGEPKQNRKLIAEVSLKNPLPVPLLGCIFTVEGAGLTKDQKSVEVPDPVEAGEQAKVRVDLLPTEVGLHKLVVNFECDKLKAVKGYRNVIIGPA
For the protein B1, the “polymerization of I-κβα on 4-12% NuPAGE” value in data set [1] is “both the intact I-κBα and the mutant I-κBα, the phosphorylation sites of which were modified, were polymerized to high-molecular weight polymers, by transglutaminase”; in the data set with Human I-κBα, “both the intact I-κBα and the mutant I-κBα, the phosphorylation sites of which were modified, were polymerized to high-molecular weight polymers, by transglutaminase”.
